From US20250340595A1 (published 2025) come the findings set out here.

In general, Kd refers to the free concentration of one partner at which half of the binding sites on the other are occupied at equilibrium, for simple one-to-one binding. As usually defined, the Ki is the dissociation constant of the complex between target and ligand, obtained from inhibition or displacement. High values mean weaker binding, low ones tighter binding.

In experiment [1] the target is T1, Recombinant cynomolgus TfR1, His6-tagged (a.a. 89-760) (cynomolgus, UniProt H9EXL1 89-760 (rhesus entry)).
T1 construct: range 89-760; same product number named for FP and SPR; also called Cyno TfR1; Acro Biosystems TFR-C524a
The experiment in a line: SPR, TfR1 on chip. For orientation: Surface plasmon resonance follows binding to a sensor surface in real time, without labels.

Experiment [2] addresses T2, Human TfR1 protein (R&D Systems, 2474-TR or Acro Biosystems, CD1-H5243) (human, UniProt P02786 89-760). The experiment in a line: FP competition, competitor BCY15768.
The target in experiment [3] is T2, Human TfR1 protein (R&D Systems, …). The experiment can be described thus: FP competition, competitor BCY15768. The source holds these as a separate data set.
Experiment [4] has as its target T3, Recombinant human TfR1, His6-tagged (a.a. 89-760) (human, UniProt P02786 89-760).
T3 construct: range 89-760; captured and coupled on an NTA chip for SPR; also called transferrin receptor 1; CD71
The experiment in a line: SPR, TfR1 on chip.

Several values for one entry are separate records, joined by “and”; a condition that tells them apart may be missing. Identical values can stand only once. Like-named read-outs stand apart in the source and are kept apart here. Starred links: 1 amine or outer side, 2 acyl side, 3 side chain; linkers in the order of their positions; H or OH if unused. Positions of bridges follow the written chain, without caps; N, C: chain ends. Non-standard residues stand in square brackets, D forms with d. No end group written: not given here. *: point of attachment. TATB = O=C(C[*:1])N1CN(C(=O)C[*:2])CN(C(=O)C[*:3])C1; 1Nal = N[C@@H](Cc1cccc2ccccc12)C(=O)O; 2Nal = N[C@@H](Cc1ccc2ccccc2c1)C(=O)O; AzPro = azidopropyl, [N-]=[N+]=NCCC*; Hyp = O=C(O)[C@@H]1C[C@@H](O)CN1; 4Pal = N[C@@H](Cc1ccncc1)C(=O)O; Tle = CC(C)(C)[C@H](N)C(=O)O; Aib = CC(C)(N)C(=O)O

T3 sequence (P02786 89-760 limits assumed): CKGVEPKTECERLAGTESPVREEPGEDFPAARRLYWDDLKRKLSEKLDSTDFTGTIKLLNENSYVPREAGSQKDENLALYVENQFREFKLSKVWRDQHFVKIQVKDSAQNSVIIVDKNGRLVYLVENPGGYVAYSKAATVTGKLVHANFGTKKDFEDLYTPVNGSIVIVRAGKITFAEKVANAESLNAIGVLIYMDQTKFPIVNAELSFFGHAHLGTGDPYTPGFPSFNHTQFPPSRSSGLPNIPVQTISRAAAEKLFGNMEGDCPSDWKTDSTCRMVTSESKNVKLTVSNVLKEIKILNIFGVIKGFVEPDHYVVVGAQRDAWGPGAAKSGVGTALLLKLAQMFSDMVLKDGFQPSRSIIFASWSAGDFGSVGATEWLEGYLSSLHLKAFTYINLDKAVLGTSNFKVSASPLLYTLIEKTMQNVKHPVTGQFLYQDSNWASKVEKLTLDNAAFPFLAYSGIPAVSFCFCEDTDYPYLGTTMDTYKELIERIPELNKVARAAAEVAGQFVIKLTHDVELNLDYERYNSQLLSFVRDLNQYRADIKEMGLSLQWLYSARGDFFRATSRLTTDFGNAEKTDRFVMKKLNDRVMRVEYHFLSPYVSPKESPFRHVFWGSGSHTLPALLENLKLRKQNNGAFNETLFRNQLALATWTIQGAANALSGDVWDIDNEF
T2 sequence (P02786 89-760 limits assumed): as above
T1 sequence (chain, as listed by the source): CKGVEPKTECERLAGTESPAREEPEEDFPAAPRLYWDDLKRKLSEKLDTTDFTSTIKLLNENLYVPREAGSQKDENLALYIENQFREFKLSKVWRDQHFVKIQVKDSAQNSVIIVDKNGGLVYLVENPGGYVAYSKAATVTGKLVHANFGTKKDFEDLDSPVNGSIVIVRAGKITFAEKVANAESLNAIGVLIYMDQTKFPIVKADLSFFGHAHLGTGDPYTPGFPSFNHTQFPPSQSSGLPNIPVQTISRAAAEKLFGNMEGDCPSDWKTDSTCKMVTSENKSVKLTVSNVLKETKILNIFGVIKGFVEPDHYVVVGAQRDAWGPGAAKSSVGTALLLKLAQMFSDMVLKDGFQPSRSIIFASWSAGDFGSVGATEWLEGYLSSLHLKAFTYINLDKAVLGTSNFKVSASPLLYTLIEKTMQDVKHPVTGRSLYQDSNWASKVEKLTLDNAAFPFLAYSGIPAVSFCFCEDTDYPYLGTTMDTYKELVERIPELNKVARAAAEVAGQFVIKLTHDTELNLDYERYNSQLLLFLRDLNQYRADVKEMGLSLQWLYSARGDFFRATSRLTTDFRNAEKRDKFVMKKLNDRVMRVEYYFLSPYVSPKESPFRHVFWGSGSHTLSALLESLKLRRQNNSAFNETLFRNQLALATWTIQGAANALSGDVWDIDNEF

With Ac-CSPDAHLGCISYCE[dP]W (linker 1-9-13 via TATB (inferred)) [BCY18038], the Kd in experiment [1] stood at 1650 nM. Consider ACSPDAHLGCISYCPIVH (linker 2-10-14 via TATB (inferred)) [BCY17120], for which the Kd in experiment [1] came out at 1260 nM. Ac-NWNCSPDAHLGCISYC (linker 4-12-16 via TATB (inferred)) [BCY17992]: the Kd in experiment [1] is 535 nM.

B1: BCY15935 (peptide)
peptide: CSPDAHLGCISYC
modifications: 3 Cys on a scaffold (TATA or TATB assumed by the filing for non-inhibitory peptides; not stated for this one)
As for B1, the inhibition constant (Ki) in experiment [2] and in experiment [3] was 300 nM each time. Consider NEVCSPDAHLGCISYCA (linker 4-12-16 via TATB (inferred)) [BCY17112], for which the dissociation constant Kd in experiment [1] came out at 2600 nM. Take ACSPDAYLGC[Tle]SYCA (linker 2-10-14 via TATB) [BCY16966]: the equilibrium dissociation constant (Kd) in experiment [1] was found to be 1900 nM. Turning to ACPPDAYLGC[Tle]SYCA (linker 2-10-14 via TATB) [BCY16964], in experiment [1], the dissociation constant (Kd) is 514 nM. In turn, ACSPDAHLGCXSYCA (3 Cys on TATB; core as printed CSPDAHLGC[B-Melle]SYC (beta-methyl isoleucine)) [BCY16040] showed an inhibition constant (Ki) in experiment [2] of 20000 nM. Turning to ACSPDAHLGCIS[4Pal]CA (linker 2-10-14 via TATB) [BCY16032], the results for the dissociation constant (Kd) in experiment [4] and in experiment [1] were 305 nM and 30000 nM, respectively. For the same molecule, the inhibitory constant (Ki) in experiment [2] and in experiment [3] was 654 nM in each case. As to NWNCSPDAHLGCISYC (3 Cys on TATB; N-terminal acetyl (Ac); [NMeTrp] in N-terminal extension) [BCY18036], the equilibrium dissociation constant (Kd) in experiment [4] came out at 422 nM; in experiment [1], 7310 nM. The molecule further came in with a Ki in experiment [2] of 90 nM.

B2: BCY20546 (peptide)
peptide: CPXDAYLGCXSYC
modifications: 3 Cys on TATA; N-terminal acetyl (Ac); core as printed CP[HyP]DAYLGC[tBuGly]SYC
notes: Same peptide as BCY17991 but cyclised on TATA
Turning to B2, the Kd in experiment [4] came to 1660 nM. Turning to NWNCSPDAHLGCISYCK (3 Cys on TATB; C-terminal [K(N3)] 6-azido lysine) [BCY17870], in experiment [3], the affinity corresponds to a Ki of 9 nM. Consider NWNCSPDAHLGCISYCA (linker 4-12-16 via TATB) [BCY17109], for which the Kd in experiment [1] was 281 nM and 535 nM. Consider ACSPDAHLGCIS[2Nal]CA (linker 2-10-14 via TATB) [BCY16031], for which the Kd is 68 nM in experiment [4] and 6480 nM in experiment [1]. The Ki in experiment [2] and in experiment [3] was 119 nM each time. As to Ac-N[dW]NCSPDAHLGCISYC (linker 4-12-16 via TATB (inferred)) [BCY18035], in experiment [1], the Kd turned out to be 10300 nM. Consider Ac-CS[Hyp]DAHLGCISYC (linker 1-9-13 via TATB) [BCY17989], for which, in experiment [2], the Ki worked out at 30 nM. As for Ac-CAPDAHLGCISYC (linker 1-9-13 via TATB (inferred)) [BCY17986], the Kd in experiment [1] was 4660 nM. ACSPDAHLGCISYCA (linker 2-10-14 via TATB) [BCY15468] came in with a Ki in experiment [3] of 103 nM. In the case of ACPXDAHLGCISYCA (3 Cys on TATB; core as printed CP[Aib]DAHLGCISYC) [BCY16550], the Kd in experiment [4] was 18 nM; in experiment [1] it was 682 nM. Moreover, the Ki in experiment [2] and in experiment [3] was 56 nM in each case.

Turning to Ac-CSPDAHLGCISYCEPW-NH2 (linker 1-9-13 via TATB (inferred)) [BCY17994], in experiment [1], the equilibrium dissociation constant (Kd) is 688 nM. The Ki in experiment [2] and in experiment [3] was 8 nM each time.

Take NWNCPXDAYLGCXSYC (3 Cys on TATB; core as printed CP[HyP]DAYLGC[tBuGly]SYC) [BCY18033]: the dissociation constant (Kd) in experiment [1] worked out at 589 nM. Besides, the Ki was 4 nM in experiment [2] and 6 nM in experiment [3].

Molecule Ac-CP[Hyp]DAYLGCISYC (linker 1-9-13 via TATB) [BCY17990] came in with an inhibition constant Ki in experiment [3] of 8 nM. For AzPro-CSPDAHLGCISYC (linker 1-9-13 via TATB (inferred)) [BCY17869], the Ki in experiment [3] is 30 nM.

B3: BCY15889 (peptide)
peptide: Ac-CPPDAHLGCISWC-NH2
modifications: linker 1-9-13 via TATB
SMILES: CC[C@H](C)[C@@H]1NC(=O)[C@@H]2CSCC(=O)N3CN(CN(C3)C(=O)CSC[C@H](NC(C)=O)C(=O)N3CCC[C@H]3C(=O)N3CCC[C@H]3C(=O)N[C@@H](CC(=O)O)C(=O)N[C@@H](C)C(=O)N[C@@H](Cc3c[nH]cn3)C(=O)N[C@@H](CC(C)C)C(=O)NCC(=O)N2)C(=O)CSC[C@@H](C(N)=O)NC(=O)[C@H](Cc2c[nH]c3ccccc23)NC(=O)[C@H](CO)NC1=O
B3 came in with an inhibition constant Ki in experiment [2] of 40 nM. In the case of NWNCSPDAHLGCISYCK (3 Cys on TATB; N-terminal acetyl (Ac); C-terminal [K(N3)] 6-azido lysine) [BCY17871], in experiment [3], the Ki worked out at 9 nM. Take ACP[Aib]DAYLGC[Tle]SYCA (linker 2-10-14 via TATB) [BCY16963]: the Kd in experiment [1] is 501 nM. Consider ACS[Aib]DAHLGC[Tle]SYCA (linker 2-10-14 via TATB) [BCY16753], for which the Kd in experiment [4] came out at 12 nM; in experiment [1] it was 1700 nM. The inhibition constant (Ki) in experiment [2] and in experiment [3] was 48 nM throughout. As to ACP[Aib]DAHLGC[Tle]SYCA (linker 2-10-14 via TATB) [BCY16962], the values for the equilibrium dissociation constant (Kd) in experiment [4] and in experiment [1] were 6.1 nM and 599 nM, respectively. The Ki in experiment [2] and in experiment [3] was 36 nM each time. With ACSPDAHLGCIS[1Nal]CA (linker 2-10-14 via TATB) [BCY16029], the dissociation constant (Kd) in experiment [1] was found to be 5480 nM.

For CPXDAYLGCXSYCEPW (3 Cys on TATB; N-terminal acetyl (Ac); core as printed CP[HyP]DAYLGC[tBuGly]SYC) [BCY17995], the Kd in experiment [4] was 3.4 nM. Besides, the Ki came to 2 nM in experiment [2] and 5 nM in experiment [3]. Molecule ACYLPDWXCGDEYCA (not fully specified; 3 Cys on TATB; core as printed CYLPDW[tBuAla]CGDEYC) [BCY15648] came in with a Ki in experiment [2] of 107 nM. As to ACSPDAHLGCISYCEPW (linker 2-10-14 via TATB (inferred)) [BCY17114], the Kd in experiment [1] came out at 845 nM. For Ac-N[1Nal]NCSPDAHLGCISYC (linker 4-12-16 via TATB) [BCY18034], the Kd in experiment [1] was determined as 2080 nM.
